Data taken from patent publication EP4624492A1.
Like-named read-outs stand apart in the source and are kept apart here. Values belong to the binder of their own block, whether it stands above or below them.

Assays:
human CCR8 (human) [1] = target: human CCR8 (human) (UniProt P51685); experiment: cell-based or functional assay
human CCR8 (human) [2] = target: human CCR8 (human) (UniProt P51685); experiment: flow cytometry on CHOK1-hCCR8 cells
human CCR8 (human) [3] = target: human CCR8 (human) (UniProt P51685); experiment: flow cytometry on HuT78 cells (endogenous CCR8)
human CCR8 (human) [4] = target: human CCR8 (human) (UniProt P51685); experiment: flow cytometry on 293F-hCCR8 cells
human CCR8 (human) [5] = target: human CCR8 (human) (UniProt P51685); experiment: flow cytometry on 293F-hCCR8 cells; remark: listed apart in the source
human CCR8 (human) [6] = target: human CCR8 (human) (UniProt P51685); experiment: flow cytometry on 293F-hCCR8 cells; remark: listed apart in the source
[7] = target: cynomolgus CCR8 (cynomolgus monkey); experiment: flow cytometry on 293T-cynoCCR8 cells
[8] = target: cynomolgus CCR8 (cynomolgus monkey); experiment: flow cytometry on 293T-cynoCCR8 cells; remark: listed apart in the source
human CCR8 (human) [9] = target: human CCR8 (human) (UniProt P51685); experiment: flow cytometry, competition with 10 nM AF647-human CCL1 on 293F-hCCR8 cells
human CCR8 (human) [10] = target: human CCR8 (human) (UniProt P51685); experiment: as above; remark: listed apart in the source
human CCR8 (human) [11] = target: human CCR8 (human) (UniProt P51685); experiment: as above; remark: listed apart in the source

Chain of human CCR8 (human) (P51685 whole entry): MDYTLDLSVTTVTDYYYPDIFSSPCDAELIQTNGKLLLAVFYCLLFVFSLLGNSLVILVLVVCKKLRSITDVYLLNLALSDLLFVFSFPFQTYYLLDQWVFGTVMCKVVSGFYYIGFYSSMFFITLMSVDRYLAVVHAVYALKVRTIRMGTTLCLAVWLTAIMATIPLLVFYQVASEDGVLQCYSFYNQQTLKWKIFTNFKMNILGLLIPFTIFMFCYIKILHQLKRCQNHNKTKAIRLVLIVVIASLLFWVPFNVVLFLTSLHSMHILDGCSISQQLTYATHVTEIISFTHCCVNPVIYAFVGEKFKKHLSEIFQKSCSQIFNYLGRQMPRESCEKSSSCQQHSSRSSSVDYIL

B1: B16_hIgG1 (antibody, from another filing, V domains shown)
VH: EVQLVESGGGLVQPGGSLKLSCAASGFTFNTYAMNWVRQASGKGLEWVGRIRSKSNNYATYYADSVKDRFTISRDDSKNTAYLQMNSLKTEDTAVYYCVRGLLRYRFFDVWGQGTTVTVSS
VL: DIVMTQSPLSLPVTPGEPASISCRSSKSLLHSNGNTYLYWFLQKPGQSPQLLIYRMSNLASGVPDRFSGSGSGTDFTLKISRVEAEDVGVYYCMQHLEYPFTFGGGTKVEIKR
- EC50 of ADCC effect (lysis%) by human PBMCs on CHOK1-hCCR8 cells (human CCR8 (human) [1]): 0.00238 µg/mL
- EC50 of activation of Jurkat-human FcγRIIIa(158V)-NFAT with 293F-hCCR8 target cells (human CCR8 (human) [1]): 0.0131 µg/mL
- EC50 of activation of Jurkat-human FcγRIIIa(158V)-NFAT with CHOK1-hCCR8 target cells (human CCR8 (human) [1]): 0.0265 µg/mL
- EC50 (human CCR8 (human) [2]): 0.0356 µg/mL
- EC50 (human CCR8 (human) [3]): 0.0364 µg/mL

B5: 559E1B10_hzH1L0_hIgG1 (antibody, V domains shown)
VH: QVQLVQSGAEVKKPGASVKVSCKASGYTFTDYYVNWVRQAPGQGLEWMGVINPHNGDTRYNQKFKGRVTMTVDKSTSTVYMELSSLRSEDTAVYYCASWLRRGYYFDSWGQGTTVTVSS
VL: EIVLTQSPATLSLSPGERATLSCRASQSISDYLHWYQQKPGQAPRLLIYYVSQSISGIPARFSGSGSGTDFTLTISSLEPEDFAVYYCQNGHSFPLTFGGGTKVEIKR
- EC50 of activation of Jurkat-human FcγRIIIa(158V)-NFAT with 293F-hCCR8 target cells (human CCR8 (human) [1]): 1.69 µg/mL

B6: 4A19_hIgG1 (antibody, from another filing, V domains shown)
VH: QVQLVQSGAEVKKPGASVKVSCKASGYTFTDSEMHWVRQATGQGLEWMGAIQPETGGTAYNQKFKARVTMTRDTSISTAYMELSSLRSEDTAVYYCARRRRNFDYWGQGTLVTVSS
VL: DIVMTQTPLSLSVTPGQPASISCRSSQSLFHSSGNTYLHWYLQKPGQPPQLLIYKVSNRFSGVPDRFSGSGSGTDFTLKISRVEAEDVGVYYCSQSTHVPFTFGQGTKLEIKR
- EC50 of activation of Jurkat-human FcγRIIIa(158V)-NFAT with CHOK1-hCCR8 target cells (human CCR8 (human) [1]): 0.0141 µg/mL

The remaining lines, values ahead:

- IC50 of blockade of CCL1-induced β-arrestin recruitment (human CCR8 (human) [1]): 2.36 µg/mL
- IC50 of blockade of CCL1-induced β-arrestin recruitment (Tango-H CCR8-CHO-K1 cells) (human CCR8 (human) [1]): 1.29 µg/mL
- EC50 (human CCR8 (human) [4]): 0.206 µg/mL
- EC50 (human CCR8 (human) [5]): 0.153 µg/mL
- EC50 (human CCR8 (human) [6]): 0.156 µg/mL
- EC50 (human CCR8 (human) [2]): 0.0788 µg/mL
- EC50 [7]: 15.3 µg/mL
- EC50 [8]: 14.6 µg/mL
- EC50 (human CCR8 (human) [3]): 0.0763 µg/mL
- IC50 (human CCR8 (human) [9]): 0.0943 µg/mL
- IC50 (human CCR8 (human) [10]): 0.0705 µg/mL
- IC50 (human CCR8 (human) [11]): 0.0965 µg/mL
B2: anti-human CCR8 433H (antibody, from another filing, V domains shown)
VH: EVQLVETGGGLVQPKGSLRLSCAASGFPFNTFAMNWVRQAPGKGLEWLARIRSKSNNYATYYADSVKDRFTISRDDSRRMLYLLMNNVKFEDTAIYYCVRGKENNYGYAMDYWGQGTSVTVSS
VL: DIVMTQAAPSVPVTPGESVSISCRSSQSLLHSNGNTYLYWFLQRPGQSPQLLIYRMSNLASGVPDRFSGSGSGTAFTLRISRVEAEDVGVYYCMQHLEYPFTFGIGTKLELKR

- EC50 of activation of Jurkat-human FcγRIIIa(158V)-NFAT with 293F-hCCR8 target cells (human CCR8 (human) [1]): 0.855 µg/mL
B3: 559E1B10_hzH0L0_hIgG1 (antibody, V domains shown)
VH: QVQLVQSGAEVKKPGASVKVSCKASGYTFTDYYVNWVRQAPGQGLEWMGVINPHNGDTRYNQKFKGRVTMTRDTSTSTVYMELSSLRSEDTAVYYCASWLRRGYYFDSWGQGTTVTVSS
VL: EIVLTQSPATLSLSPGERATLSCRASQSISDYLHWYQQKPGQAPRLLIYYVSQSISGIPARFSGSGSGTDFTLTISSLEPEDFAVYYCQNGHSFPLTFGGGTKVEIKR

- EC50 of activation of Jurkat-human FcγRIIIa(158V)-NFAT with 293F-hCCR8 target cells (human CCR8 (human) [1]): 0.706 µg/mL
B4: 559E1B10_hzH2L0_hIgG1 (antibody, V domains shown)
VH: QVQLVQSGAEVKKPGASVKVSCKASGYTFTDYYVNWVRQAPGQGLEWIGVINPHNGDTRYNQKFKGRATLTVDKSTSTVYMELSSLRSEDTAVYYCASWLRRGYYFDSWGQGTTVTVSS
VL: EIVLTQSPATLSLSPGERATLSCRASQSISDYLHWYQQKPGQAPRLLIYYVSQSISGIPARFSGSGSGTDFTLTISSLEPEDFAVYYCQNGHSFPLTFGGGTKVEIKR
